This series concerns MS2 coat protein. Kind of series: apparent KD of MS2 coat protein; designed switch direction (-1 OFF switch, 1 ON switch): -1; higher = weaker reporter binding. The essentials:
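Stalled E. coli RNA polymerase transcribed designed RNA switches on Illumina chips, which were then titrated with SNAP-549-labelled MS2 coat protein, doubling from 0.7 or 1.5 nM to 3 µM. Steps lasted from 0.8–1.5 h at the lowest concentration to 10–20 min at the highest. The apparent KD is each design's median over clusters of curve-fitted normalised fluorescence.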

Setting [1] is: Eterna round: R95, input ligand: FMN 200 uM.
[2] abbreviates: Eterna round: R95, input ligand: microRNA oligo, concentration not stated.
[3] abbreviates: Eterna round: R95, input ligand: none.
The mark [4] stands for this setting: input ligand: microRNA oligo, concentration not stated.

For “CUGAGGUAGCGGUCCUAUGACAUGAGGAUCACCCAUGUACCUUGCUACGAGCUUUUUGCUCGUCUUAUGAUUCUCGG [JL Atriat mod 4] (puzzle: Sensor v3, turn-off variant 1)”, the “apparent KD of MS2 coat protein” value was found to be 166 nM under setting [1], 93.9 nM under setting [2] and 250 nM under setting [3].
“CUGAGGUAGCGGUCCUAUGACAUGAGGAUCACCCAUGUACCUUGCUUUGAGCUAUUUGCUCGUCUUAUGAUUCUCGG [Mat - Sensor v3 - turn-off var 1 - JL Mod - D40] (Eterna round: R96, puzzle: Sensor v3, turn-off variant 1)”: the “apparent KD of MS2 coat protein” value runs as follows: (input ligand: FMN 200 uM) 788 nM; under setting [4], 655 nM; (input ligand: none) 758 nM.
Take “CUGAGGUAGCGGUCCUAUGACAUGAGGAUCACCCAUGUACCUUGCUUUGAGCUAUUUGCUCGUCUUAUGAUUCUCGG [Mat - Sensor v3 - turn-off var 1 - JL Mod - D40] (puzzle: Sensor v3, turn-off variant 1)”: the “apparent KD of MS2 coat protein” value runs as follows: under setting [1], 457 nM; under setting [2], 355 nM; under setting [3], 545 nM.
Take “CUGAGUUCAGGAUAUACAUGAGGAUCACCCAUGUAAAGUAGCUUGCGUACAGGCAGAUGUAGAAGGGAAUUCGG [Mod of JL 6 - Jieux - Exclusion 3] (Eterna round: R97, puzzle: Exclusion 3)”: the “apparent KD of MS2 coat protein” value runs as follows: (input ligand: FMN 200 uM) 30.2 nM; (input ligand: none) 19 nM.
In the same order, the values of “CUGAUGUGAGGAUAUCUAAGGCGACCAUGAGACAUGGGCCAAGAGAAGGCACAUGAGGAUCACCCAUGUACCGA [Anertees] (Eterna round: R97, puzzle: Exclusion 4)” are 83.8 nM and 22.2 nM.
With “CUGGUCCGAGGAUAUAUGAUGUGAAACAUGAGGAUCACCCAUGUAAUAUUAUGGAGGUAAAUAGAAGGCGGACUAG [Mat - Exclusion 5 - JL mod - D35] (puzzle: Exclusion 5)”, the “apparent KD of MS2 coat protein” value stood at 45.3 nM under setting [1], 55.2 nM under setting [2] and 60 nM under setting [3].
On to “CUGGUCCGAGGAUAUAUUAAGUGAUACAUGAGGAUCACCCAUGUAAUUUAAUGGAAAUAAAUAGAAGGCGGACUAG [Mat - Exclusion 5 - JL mod - D51] (puzzle: Exclusion 5)”, for which the “apparent KD of MS2 coat protein” value under setting [1] is 30 nM, the “apparent KD of MS2 coat protein” value under setting [2] was 65.3 nM and the “apparent KD of MS2 coat protein” value under setting [3] worked out at 62.5 nM.
Consider “CUGGUCCGAGGAUAUAUUAUGUGAUACAUGAGGAUCACCCAUGUUAUAUAAUGGAUGUAAAUAGAAGGCGGACUAG [JL-ex5-3.16] (puzzle: Exclusion 5)”, for which the “apparent KD of MS2 coat protein” value runs as follows: under setting [1], 60.3 nM; under setting [2], 43.2 nM; under setting [3], 44 nM.
In the case of “CUGGUGCGCGGAGGAUAUCGGAAAGGAAGUGUACGAGAAGGUCGUUCCACCAAACAUGAGGAUCACCCAUGUAGGAGUGACCUC [PowerStrip EXNG 1.7] (Eterna round: R96, puzzle: Exclusion NG 1)”, the “apparent KD of MS2 coat protein” value (input ligand: FMN 200 uM) was determined as 127 nM, the “apparent KD of MS2 coat protein” value under setting [4] was 45.6 nM and the “apparent KD of MS2 coat protein” value (input ligand: none) amounted to 62.9 nM.
For “CUGUUACAUGAGGAUCACCCAUGUGAGGAUAUGGUUCGGUACUGUCCUGUCGCGUACUCCAGAAGGCACGUGUU [1st #36] (Eterna round: R97, puzzle: Exclusion 1)”, the “apparent KD of MS2 coat protein” value reads like this: (input ligand: FMN 200 uM) 46.5 nM; (input ligand: none) 36.5 nM.
With “CUUAAGUUAGGAUAUGCGCUACGGAAUCGUGGUUAUAGACAGCAGAAGGAACUUGAGGAUCACCCAAGUAAAUA [Inatsoce] (Eterna round: R97, puzzle: Exclusion 4)”, the “apparent KD of MS2 coat protein” value worked out at 89.2 nM (input ligand: FMN 200 uM) and 108 nM (input ligand: none).
With “CUUAGCGUAGGAUAUUAGUACAUGAACAUGAGGAUCACCCAUGUGAGGUGGGUCUUAGAUUAAGAAGGGCGAAGAA [EX5 #32] (Eterna round: R97, puzzle: Exclusion 5)”, the “apparent KD of MS2 coat protein” value (input ligand: FMN 200 uM) came to 221 nM and the “apparent KD of MS2 coat protein” value (input ligand: none) came out at 249 nM.
As for “CUUAGGGCGGAGGAUAUGCCGUGGGCGAAUACAGUAGAAGGCCGCACUUGAGGAUCACCCAAGUAUGGUCAAAC [Inusisbeor] (Eterna round: R97, puzzle: Exclusion 6)”, the “apparent KD of MS2 coat protein” value (input ligand: FMN 200 uM) was 15.4 nM and the “apparent KD of MS2 coat protein” value (input ligand: none) worked out at 13.1 nM.
Turning to “CUUAUGUCAGGAUAUGCCUGGCCGUGAGGCCAAAUUGAAUAGCAGAAGGGACAUGAGGAUCACCCAUGUCCGGG [jl-ex4-4.64 ViennaUCT mod] (Eterna round: R97, puzzle: Exclusion 4)”, the “apparent KD of MS2 coat protein” value (input ligand: FMN 200 uM) is 115 nM and the “apparent KD of MS2 coat protein” value (input ligand: none) amounted to 130 nM.
Turning to “CUUCAAUCACCAGAGCUCACACUUAUACCUGCUCUGGUGACAUGAGGAUCACCCAUGUUUUUUGCCCGUCUUAUCUU [Sensor v3, turn-off variant 2 (MOD of Leso v.3)] (puzzle: Sensor v3, turn-off variant 2)”, the “apparent KD of MS2 coat protein” value came to 86.6 nM under setting [1], 33 nM under setting [2] and 97.4 nM under setting [3].
Consider “CUUCGACAUGAGGAUCACCCAUGUCAGGAUAUUGUGUAUCGGGUUUUUUACGGAAAGGCAAGAAGGGAUGUGUG [LRO-Excl1-07] (puzzle: Exclusion 1)”, for which the “apparent KD of MS2 coat protein” value under setting [2] came to 25.4 nM.
In the case of “CUUCGUAUAGAGGAUAUAGGAUACUGCGGUGUCCUAGAAGGCUGUACAUGAGGAUCACCCAUGUACUUCAGAUC [Exclusion 6 - B - 14:c] (puzzle: Exclusion 6)”, the “apparent KD of MS2 coat protein” value under setting [2] was 12 nM.
For “CUUCGUAUAGAGGAUAUAGGAUACUUCGGUGUCCUAGAAGGCUGUACAUGAGGAUCACCCAUGUACUUCAGAUC [Exclusion 6 - B - 14:b] (puzzle: Exclusion 6)”, the “apparent KD of MS2 coat protein” value under setting [2] was 11.9 nM.
In the case of “CUUCGUGUCAAGGAUAUACAGCAACUAUCCGGAGUAGAAGGUGGCACUUGAGGAUCACCCAAGUGCGUGGGUGU [Uszaqubi] (Eterna round: R97, puzzle: Exclusion 6)”, the “apparent KD of MS2 coat protein” value came to 33.5 nM (input ligand: FMN 200 uM) and 25.7 nM (input ligand: none).
Consider “CUUCGUUGUAAGGAUAUCCAGACUCUUCCUGUCGGAGAAGGUACAACAUGAGGAUCACCCAUGUUGCUACAUGG [Zaaqu] (puzzle: Exclusion 6)”, for which the “apparent KD of MS2 coat protein” value under setting [2] turned out to be 21.6 nM.
Regarding “CUUGCGGAUAAAGGAUAUUGCGGUGACCGGCUCGGCGUACCGAGCCUACAUGAGGAUCACCCAUGUAAGAAGGUUGUCGCUGGU [JL ViennaUCT Qudice mod 3] (Eterna round: R96, puzzle: Exclusion NG 2)”, the “apparent KD of MS2 coat protein” value came out at 12.9 nM (input ligand: FMN 200 uM), 8.45 nM under setting [4] and 14.1 nM (input ligand: none).
Consider “CUUGUUUAUGUAGGAUAUGCCUGGCGUGCCUUUGCAGAAGGACAUGAGGAUCACCCAUGUAUUGCGGUCUGCGUUCAGAUCGCU [salish99_ExNG1_r4_044] (Eterna round: R96, puzzle: Exclusion NG 1)”, for which the “apparent KD of MS2 coat protein” value (input ligand: FMN 200 uM) was 41.1 nM, the “apparent KD of MS2 coat protein” value under setting [4] amounted to 28.8 nM and the “apparent KD of MS2 coat protein” value (input ligand: none) was determined as 36.6 nM.
Turning to “CUUUAACAAGCGAGAUCCAACAUGAGGAUCACCCAUGUGCAUCCACGAUUAGUGGGUGCGAAAGCUCGUCUUAUAUG [v1] (Eterna round: R97, puzzle: Sensor, turn-off variant 1)”, the “apparent KD of MS2 coat protein” value runs as follows: (input ligand: FMN 200 uM) 20.9 nM; (input ligand: none) 21.6 nM.
On to “CUUUGGUCAGGAUAUGGUGGGCUGGUCGCGCGGCCGGGUGGCCAGAAGGGACAUGAGGAUCACCCAUGUACGGC [excls4-X] (Eterna round: R96, puzzle: Exclusion 4)”, for which the “apparent KD of MS2 coat protein” value by setting is: (input ligand: FMN 200 uM) 106 nM; under setting [4], 53 nM; (input ligand: none) 84.3 nM.
“CUUUUGUGAGGAUAUCAGUAGUAAAAAAAUAAAAUUACUAUUGAGAAGGCACAUGAGGAUCACCCAUGUUCCUC [salish99_ex4_r3_029] (puzzle: Exclusion 4)”: under setting [2], the “apparent KD of MS2 coat protein” value stood at 36.4 nM.
As to “CUUUUGUGAGGAUAUCAGUAGUAAAAAUAUAAAAUUACUACUGAGAAGGCACAUGAGGAUCACCCAUGUUCCUC [salish99_ex4_r3_020] (puzzle: Exclusion 4)”, the “apparent KD of MS2 coat protein” value under setting [2] was determined as 37.2 nM.
Take “CUUUUGUGAGGAUAUCAGUAGUAAAAGAAUAAAAUUACUACUGAGAAGGCACAUGAGGAUCACCCAUGUUCCUC [Mat - Exclusion 4 - Mod of Salish - D61] (puzzle: Exclusion 4)”: the “apparent KD of MS2 coat protein” value under setting [2] came out at 36.7 nM.
Still for that read-out and setting: then “CUUUUGUGAGGAUAUUAGUAGUAAAAAAAUAAAAUUACUACUGAGAAGGCACAUGAGGAUCACCCAUGUUCUUC [salish99_ex4_r3_038] (puzzle: Exclusion 4)”, with 17.5 nM.
On to “CUUUUGUGAGGAUAUUAGUAGUAAAUAAAUUAAAUUACUACUGAGAAGGCACAUGAGGAUCACCCAUGUUCCUC [salish99_ex4_r3_057] (Eterna round: R96, puzzle: Exclusion 4)”, for which the “apparent KD of MS2 coat protein” value was 428 nM (input ligand: FMN 200 uM), 32.8 nM under setting [4] and 36.6 nM (input ligand: none).
Consider “CUUUUGUGAGGAUAUUAGUAGUAAAUAAAUUAAAUUACUACUGAGAAGGCACAUGAGGAUCACCCAUGUUCCUC [salish99_ex4_r3_057] (puzzle: Exclusion 4)”, for which the “apparent KD of MS2 coat protein” value under setting [2] stood at 32 nM.
On to “CUUUUGUGAGGAUAUUAGUAUUAAAUAAAUAAAAUUACUACUGAGAAGGCACAUGAGGAUCACCCAUGUUCCUC [salish99_ex4_r3_050] (puzzle: Exclusion 4)”, for which the “apparent KD of MS2 coat protein” value under setting [2] is 33.6 nM.
Turning to “GAAAACCUAGGAUAUACAUGAGGAUCACCCAUGUGAAAACCUCUUAAAACUUAACAAUGUAGAAGGAGGAAAAC [Azaqure] (puzzle: Exclusion 3)”, the “apparent KD of MS2 coat protein” value by setting is: under setting [1], 39.9 nM; under setting [2], 43.2 nM; under setting [3], 38.3 nM.

The values are drawn from the supplement of paper PMC9170038.
